Laboratory results published in article PMC12152161, “Molecular basis for assembly and activation of the Hook3 − KIF1C complex-dependent transport machinery” (EMBO Reports, 2025).

T1: full-length KIF1C(WT)−Flag−EGFP (UniProt O43896 1-1103)
T1 sequence (looked up): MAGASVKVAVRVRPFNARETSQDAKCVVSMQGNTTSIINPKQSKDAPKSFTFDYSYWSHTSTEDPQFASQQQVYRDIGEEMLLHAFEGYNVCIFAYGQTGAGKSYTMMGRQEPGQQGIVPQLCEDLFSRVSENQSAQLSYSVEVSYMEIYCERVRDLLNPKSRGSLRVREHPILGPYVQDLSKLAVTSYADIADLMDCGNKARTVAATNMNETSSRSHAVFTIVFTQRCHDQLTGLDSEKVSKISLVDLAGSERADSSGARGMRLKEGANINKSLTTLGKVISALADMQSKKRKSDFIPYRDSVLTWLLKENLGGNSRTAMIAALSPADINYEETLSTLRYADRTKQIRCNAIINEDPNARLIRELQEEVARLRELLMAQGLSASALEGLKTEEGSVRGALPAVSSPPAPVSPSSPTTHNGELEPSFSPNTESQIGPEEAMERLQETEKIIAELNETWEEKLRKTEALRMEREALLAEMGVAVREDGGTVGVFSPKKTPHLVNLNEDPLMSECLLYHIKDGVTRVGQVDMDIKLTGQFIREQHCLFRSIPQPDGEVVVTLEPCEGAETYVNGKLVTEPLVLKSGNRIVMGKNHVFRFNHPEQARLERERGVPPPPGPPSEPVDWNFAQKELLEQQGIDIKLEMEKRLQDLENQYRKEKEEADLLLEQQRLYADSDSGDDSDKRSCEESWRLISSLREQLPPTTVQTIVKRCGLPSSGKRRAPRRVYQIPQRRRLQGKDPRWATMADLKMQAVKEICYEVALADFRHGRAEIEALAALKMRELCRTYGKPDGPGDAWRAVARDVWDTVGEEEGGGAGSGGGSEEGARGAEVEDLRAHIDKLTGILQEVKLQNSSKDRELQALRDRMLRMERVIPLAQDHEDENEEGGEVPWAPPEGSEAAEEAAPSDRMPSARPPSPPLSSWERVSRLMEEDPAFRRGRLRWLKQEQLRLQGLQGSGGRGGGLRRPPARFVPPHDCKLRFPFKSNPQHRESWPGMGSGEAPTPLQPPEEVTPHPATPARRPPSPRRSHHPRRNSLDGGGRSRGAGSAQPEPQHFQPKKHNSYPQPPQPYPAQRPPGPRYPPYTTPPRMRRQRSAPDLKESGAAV

T2: His10 − MBP − PTPN21(19–308) (UniProt Q16825 19-308)
T2 construct: Tagged form used in native gels and ITC; also called PTPN21_(FERM); FERM domain of PTPN21; source: E. coli BL21(DE3) RIL, purified (Ni-NTA, size-exclusion chromatography); not shown: His10, N-terminal, kept; MBP, N-terminal, kept
T2 sequence (looked up): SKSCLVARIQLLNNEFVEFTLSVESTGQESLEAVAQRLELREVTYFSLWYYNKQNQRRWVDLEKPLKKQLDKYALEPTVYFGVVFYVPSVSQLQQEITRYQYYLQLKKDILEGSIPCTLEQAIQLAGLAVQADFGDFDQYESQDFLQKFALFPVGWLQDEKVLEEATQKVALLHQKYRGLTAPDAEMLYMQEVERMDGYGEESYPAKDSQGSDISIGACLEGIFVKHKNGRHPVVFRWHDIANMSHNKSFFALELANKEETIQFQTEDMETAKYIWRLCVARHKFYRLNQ

T3: His10 − MBP−Hook3(553–718) (UniProt Q86VS8 553-718)
T3 construct: source: E. coli BL21(DE3) RIL, purified (Ni-NTA, size-exclusion chromatography); not shown: His10, N-terminal, kept; MBP, N-terminal, kept
T3 sequence (looked up): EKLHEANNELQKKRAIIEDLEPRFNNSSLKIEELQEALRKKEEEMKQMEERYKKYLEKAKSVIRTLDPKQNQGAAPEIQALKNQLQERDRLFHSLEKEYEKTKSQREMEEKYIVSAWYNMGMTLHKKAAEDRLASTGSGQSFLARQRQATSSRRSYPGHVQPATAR

B1: His10 − MBP−Hook3(553–624) (domain or fragment, UniProt Q86VS8 553-624, looked up)
chain: EKLHEANNELQKKRAIIEDLEPRFNNSSLKIEELQEALRKKEEEMKQMEERYKKYLEKAKSVIRTLDPKQNQ
notes: Tagged form used in native gels and ITC; also called Hook3CC3; source: E. coli BL21(DE3) RIL, purified (Ni-NTA, size-exclusion chromatography); not shown: His10, N-terminal, kept; MBP, N-terminal, kept
B2: Hook3(553–624) (domain or fragment, UniProt Q86VS8 553-624, looked up)
chain: B1 chain
notes: Untagged form used in the SEC replacement analysis and in the crystals; parallel coiled-coil homodimer in both crystal structures; A selenomethionine-substituted form was also made for the apo structure; also called Hook3CC3; source: E. coli BL21(DE3) RIL, purified (Ni-NTA, size-exclusion chromatography, tag removed with TEV protease); not shown: His10, N-terminal, cleaved; MBP, N-terminal, …
B3: full-length Hook3(WT)−Myc−FuRed (natural protein, UniProt Q86VS8 1-718, looked up)
chain: MFSVESLERAELCESLLTWIQTFNVDAPCQTVEDLTNGVVMAQVLQKIDPAYFDENWLNRIKTEVGDNWRLKISNLKKILKGILDYNHEILGQQINDFTLPDVNLIGEHSDAAELGRMLQLILGCAVNCEQKQEYIQAIMMMEESVQHVVMTAIQELMSKESPVSAGNDAYVDLDRQLKKTTEELNEALSAKEEIAQRCHELDMQVAALQEEKSSLLAENQVLMERLNQSDSIEDPNSPAGRRHLQLQTQLEQLQEETFRLEAAKDDYRIRCEELEKEISELRQQNDELTTLADEAQSLKDEIDVLRHSSDKVSKLEGQVESYKKKLEDLGDLRRQVKLLEEKNTMYMQNTVSLEEELRKANAARSQLETYKRQVVELQNRLSEESKKADKLDFEYKRLKEKVDSLQKEKDRLRTERDSLKETIEELRCVQAQEGQLTTQGLMPLGSQESSDSLAAEIVTPEIREKLIRLQHENKMLKLNQEGSDNEKIALLQSLLDDANLRKNELETENRLVNQRLLEVQSQVEELQKSLQDQGSKAEDSVLLKKKLEEHLEKLHEANNELQKKRAIIEDLEPRFNNSSLKIEELQEALRKKEEEMKQMEERYKKYLEKAKSVIRTLDPKQNQGAAPEIQALKNQLQERDRLFHSLEKEYEKTKSQREMEEKYIVSAWYNMGMTLHKKAAEDRLASTGSGQSFLARQRQATSSRRSYPGHVQPATAR
B4: His10 − MBP − KIF1C(714–809) (domain or fragment, UniProt O43896 714-809, looked up)
chain: PSSGKRRAPRRVYQIPQRRRLQGKDPRWATMADLKMQAVKEICYEVALADFRHGRAEIEALAALKMRELCRTYGKPDGPGDAWRAVARDVWDTVGE
notes: Tag kept, as named in the legends and methods of the native gel, ITC and SEC experiments; also called KIF1C_(H3BD); source: E. coli BL21(DE3) RIL, purified (Ni-NTA, size-exclusion chromatography); not shown: His10, N-terminal, kept; MBP, N-terminal, kept

Assays:
[1] = biological target: B4; test: ITC; 0.8 mM His10−MBP−Hook3(553–624) or His10−MBP−PTPN21(19–308) titrated into 0.04 mM His10−MBP−KIF1C(714–809); 25 °C; 50 mM Tris-HCl pH 7.5, 500 mM NaCl, 3 mM β-mercaptoethanol; MicroCal VP-ITC; details: both partners purified
[2] = biological target: the molecule itself; test: crystal structure; Hook3(553–624) − KIF1C(714–809) complex, 30 mg/mL, sitting drop at 4 °C, 0.1 M sodium citrate/citric acid pH 5.5, 20% PEG 4000, 20% isopropanol; 3.0 Å
[3] = biological target: T1, full-length KIF1C(WT)−Flag−EGFP; test: cell-based or functional assay
[4] = biological target: T2, His10 − MBP − PTPN21(19–308); test: ITC; 0.8 mM His10−MBP−Hook3(553–624) or His10−MBP−PTPN21(19–308) titrated into 0.04 mM His10−MBP−KIF1C(714–809); 25 °C; 50 mM Tris-HCl pH 7.5, 500 mM NaCl, 3 mM β-mercaptoethanol; MicroCal VP-ITC; details: both partners purified
[5] = biological target: T3, His10 − MBP−Hook3(553–718); test: native gel or EMSA; His10−MBP-tagged recombinant proteins alone or mixed (10 µM; molar ratio 1:1), incubated 16 h at 4 °C, 10% native gel, 120 V for 2 h on ice, Coomassie staining; details: both partners purified

Binder: B1
Kd [1]: 1.58 µM

Binder: B2
stoichiometry N [2]: 2

Binder: B3
tail/cytoplasm ratio of Hook3−Myc−FuRed upon co-expression in RPE1 cells, 16 h post transfection [3]: 1.3 tail/cytoplasm ratio
tail/cytoplasm ratio of KIF1C−Flag−EGFP upon co-expression in RPE1 cells, 16 h post transfection [3]: 3.6 tail/cytoplasm ratio

Binder: B4
Kd [4]: 5.15 µM
binding result [5]: binds
